How the values were obtained:
[1] = test system: proFIX-Fc (FIX-Fc retaining the FIX propeptide; dimer or monomer form not given)
[2] = biological target: precursor (proFIX) of FIX alone produced in the presence of PACE-SOL (BeneFIX®) (UniProt P00740)
Chain of precursor (proFIX) of FIX alone produced in the presence of PACE-SOL (BeneFIX®) (P00740 whole entry, looked up): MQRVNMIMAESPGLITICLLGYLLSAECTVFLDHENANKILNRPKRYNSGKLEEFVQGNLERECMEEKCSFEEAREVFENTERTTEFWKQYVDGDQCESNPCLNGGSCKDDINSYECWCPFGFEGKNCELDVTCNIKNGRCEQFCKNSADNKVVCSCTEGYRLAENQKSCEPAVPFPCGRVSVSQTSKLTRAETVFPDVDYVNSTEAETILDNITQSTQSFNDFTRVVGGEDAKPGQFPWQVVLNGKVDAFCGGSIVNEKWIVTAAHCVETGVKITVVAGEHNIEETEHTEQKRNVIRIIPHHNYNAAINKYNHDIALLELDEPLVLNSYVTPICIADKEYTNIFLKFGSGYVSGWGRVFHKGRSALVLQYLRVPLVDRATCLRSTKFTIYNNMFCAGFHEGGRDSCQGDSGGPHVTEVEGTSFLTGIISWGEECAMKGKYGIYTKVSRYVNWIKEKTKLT

Substance: PACE-SOL (soluble form of human PACE, amino acids 1-715)
- Propeptide Processing (Western blotting), CHO, transient transfection [1]: processes
- peptide mapping (tryptic digest, LC/MS) for the propeptide indicator peptide (PIP) [2]: FIX alone produced in the presence of PACE-SOL (BeneFIX®) appeared identical to FIX-Fc monomer produced with PC5 (FIG. 13), displaying no detectable PIP

Source: patent US20070259402
